The text below walks through data of paper PMC4848090, “Mechanistic insight into a peptide hormone signaling complex mediating floral organ abscission” (eLife, 2016).

One test has as its system HAESA - IDA. Nature of the test: Isothermal titration calorimetry of SERK1 titrated into HAESA in the presence of IDA. As to conditions: ITC, 25°C, pH 5.0; SERK1 (100 μM) titrated into HAESA (10 μM) in the presence of 150 μM wild-type IDA peptide. Type of test: binding, Arabidopsis thaliana. An excerpt: (§1) Synthetic genes coding for the Arabidopsis thaliana HAESA (residues 20–620) and SERK1 ectodomains (residues 24–213, carrying Asn115→Asp and Asn163→Gln mutations), codon optimized for expression in Trichoplusia ni (Geneart, Germany), were cloned into a modified pBAC-6 transfer vector (Novagen, Billerica, MA), providing an azurocidin signal peptide and a C-terminal TEV (tobacco etch virus protease) cleavable Strep-9xHis tandem affinity tag. Recombinant baculoviruses were generated by co-transfecting transfer vectors with linearised baculovirus DNA (ProFold-ER1, AB vector, San Diego, CA) followed by viral amplification in Spodoptera frugiperda Sf9 cells. […] The purified HAESA ectodomain was incubated with a synthetic IDA peptide (YVPIPPSA-Hyp-SKRHN, the N-terminal Tyr residue was added to allow for peptide quantification by UV absorbance) and the SERK1 ectodomain in 1:1:1.5 molar ratio. […]
(§2) ITC experiments were performed using a Nano ITC (TA Instruments, New Castle, DE) with a 1.0 mL standard cell and a 250 μL titration syringe. […] Molar protein concentrations for SERK1 and HAESA were calculated using their molar extinction coefficient and a molecular weight of 27,551 and 74,896 Da, respectively (determined by MALDI-TOF mass spectrometry). […] Data were analyzed using the NanoAnalyze program (version 2.3.6) as provided by the manufacturer.

A further test relates to HAESA ectodomain. As to the kind of experiment: Isothermal titration calorimetry of SERK1 titrated into HAESA ectodomain only. The arrangement: species or system Arabidopsis thaliana. As to conditions: ITC, 25°C, pH 5.0; SERK1 (100 μM) titrated into HAESA (10 μM) in the absence of IDA; n.d. no detectable binding.
Description: as §1, §2

B1: SERK1: LRR ectodomain of Arabidopsis SERK1 co-receptor (residues 24–213, Asn115→Asp, Asn163→Gln), expressed in insect cells (protein)
chain: ASANLEGDALHTLRVTLVDPNNVLQSWDPTLVNPCTWFHVTCNNENSVIRVDLGNAELSGHLVPELGVLKNLQYLELYSNNITGPIPSNLGDLTNLVSLDLYLNSFSGPIPESLGKLSKLRFLRLNNNSLTGSIPMSLTQITTLQVLDLSNNRLSGSVPDNGSFSLFTPISFANNLDLCGPVTSHPCPGS
modifications: left off: Strep, C-terminal, cleaved | 9xHis, C-terminal, cleaved
notes: LRR ectodomain of Arabidopsis SERK1 co-receptor (residues 24–213, Asn115→Asp, Asn163→Gln), expressed in insect cells
Regarding B1, the “Kd of SERK1, protein in cell: HAESA - IDA” value with HAESA - IDA is listed as “mid-nanomolar range”. Also, the “Kd of SERK1, protein in cell: HAESA” value in the test with HAESA ectodomain is “no detectable interaction”.
